The test concerns the target HIV-1 strain IIIB envelope protein gp120/41 on the surface of HIV-1-infected Jurkat cells (HIV-1 strain IIIB) (UniProt P04578). Put plainly: cell-based or functional assay.

These results are taken from patent EP1012244B1.

Consider “CXCR4 protein with an HA epitope tag (from UniProt P61073 1-352) (receptor)”, for which the percentage of HIV-1+ cells that were also infected with VSVΔG-CC4 lay within 90 to 95%.
